Data: publication PMC8979966

B1: TCR 868 CDR3-alpha fragment GAHDYALN, as printed (the 868 form used here; an outside source, not checked, gives natural 868 a different CDR3-alpha) (parent)
chain: GAHDYALN

Variants of: B1
Assay: YAMTAD yeast mating, deep sequencing; 2 biological x 4 technical repeats
Details: with SL9 ([…]) on HLA-A*02:01, single chain; S. cerevisiae mating; SL9 group vs negative-control group; higher = more enriched with SL9 than with the negative controls; the paper calls a variant enriched at SL9/NC > 1 and P < 0.05; unresolved parent; not an affinity; keep out of graded; scale: ratio 'SL9/NC': mean frequency in the SL9-HLA-A*02:01 group / mean frequency in the sheet's 'NC' group, each normalised …; numbering: sequential-on-construct, sequence starts at 1
Work on LAHDYALN yielded a screen value of 1.21.
GACDYALN was tested, and the screen value was 1.13.
GLHDYALN gave a screen value of 1.06.
